From the Immune Epitope Database (IEDB)

Experiments:
[1] = target: HLA-B*40:01; experiment: IEDB peptide-MHC binding, purified MHC/competitive/fluorescence; filed as Kd, often an IC50 or EC50 that approximates it; ≥ and ≤ were set here for values at or beyond the usual limits of such assays; conditions: source organism: Vibrio parahaemolyticus AQ3810
[2] = target: HLA-A*30:02; experiment: as above; conditions: source organism: Vibrio parahaemolyticus AQ3810
[3] = target: HLA-B*14:02; experiment: as above; conditions: source organism: Vibrio parahaemolyticus AQ3810
[4] = target: HLA-A*01:01; experiment: as above; conditions: source organism: Vibrio parahaemolyticus AQ3810
[5] = target: HLA-A*66:01; experiment: as above; conditions: source organism: Vibrio parahaemolyticus AQ3810
[6] = target: HLA-B*44:02; experiment: as above; conditions: source organism: Vibrio parahaemolyticus AQ3810
[7] = target: HLA-B*58:01; experiment: as above; conditions: source organism: Vibrio parahaemolyticus AQ3810
[8] = target: HLA-A*11:01; experiment: as above; conditions: source organism: Vibrio parahaemolyticus AQ3810
[9] = target: HLA-B*27:05; experiment: as above; conditions: source organism: Vibrio parahaemolyticus AQ3810
[10] = target: HLA-A*30:01; experiment: as above
[11] = target: HLA-B*07:02; experiment: as above
[12] = target: HLA-B*08:01; experiment: as above; conditions: source organism: Vibrio parahaemolyticus AQ3810
[13] = target: HLA-B*53:01; experiment: as above; conditions: source organism: Vibrio parahaemolyticus AQ3810
[14] = target: HLA-B*46:01; experiment: IEDB peptide-MHC binding, purified MHC/direct/fluorescence; filed as Kd, often an IC50 or EC50 that approximates it; ≥ and ≤ were set here for values at or beyond the usual limits of such assays; conditions: source organism: Vibrio parahaemolyticus AQ3810
[15] = target: HLA-A*02:01; experiment: as above; conditions: source organism: Vibrio parahaemolyticus AQ3810
[16] = target: HLA-A*02:06; experiment: as above; conditions: source organism: Vibrio parahaemolyticus AQ3810
[17] = target: HLA-B*15:01; experiment: as above; conditions: source organism: Vibrio parahaemolyticus AQ3810
[18] = target: HLA-A*24:03; experiment: as above; conditions: source organism: Vibrio parahaemolyticus AQ3810
[19] = target: HLA-A*29:02; experiment: as above; conditions: source organism: Vibrio parahaemolyticus AQ3810
[20] = target: HLA-B*15:17; experiment: as above; conditions: source organism: Vibrio parahaemolyticus AQ3810
[21] = target: HLA-B*51:01; experiment: as above; conditions: source organism: Vibrio parahaemolyticus AQ3810
[22] = target: HLA-A*26:01; experiment: as above; conditions: source organism: Vibrio parahaemolyticus AQ3810
[23] = target: HLA-A*23:01; experiment: as above; conditions: source organism: Vibrio parahaemolyticus AQ3810
[24] = target: HLA-A*02:19; experiment: as above; conditions: source organism: Vibrio parahaemolyticus AQ3810
[25] = target: HLA-A*69:01; experiment: as above; conditions: source organism: Vibrio parahaemolyticus AQ3810
[26] = target: HLA-A*03:01; experiment: as above; conditions: source organism: Vibrio parahaemolyticus AQ3810
[27] = target: HLA-B*18:01; experiment: as above; conditions: source organism: Vibrio parahaemolyticus AQ3810
[28] = target: HLA-B*57:01; experiment: as above; conditions: source organism: Vibrio parahaemolyticus AQ3810
[29] = target: HLA-B*27:03; experiment: as above; conditions: source organism: Vibrio parahaemolyticus AQ3810
[30] = target: HLA-A*26:02; experiment: IEDB peptide-MHC binding, purified MHC/competitive/fluorescence; filed as Kd, often an IC50 or EC50 that approximates it; ≥ and ≤ were set here for values at or beyond the usual limits of such assays; conditions: source organism: Human immunodeficiency virus 1
[31] = target: HLA-B*15:09; experiment: as above; conditions: source organism: Human immunodeficiency virus 1
[32] = target: HLA-B*08:02; experiment: as above; conditions: source organism: Human immunodeficiency virus 1
[33] = target: HLA-A*02:01; experiment: as above; conditions: source organism: Human immunodeficiency virus 1
[34] = target: HLA-A*02:06; experiment: as above; conditions: source organism: Human immunodeficiency virus 1
[35] = target: HLA-A*26:01; experiment: as above; conditions: source organism: Human immunodeficiency virus 1
[36] = target: HLA-A*68:02; experiment: as above; conditions: source organism: Human immunodeficiency virus 1
[37] = target: HLA-A*02:03; experiment: as above; conditions: source organism: Human immunodeficiency virus 1
[38] = target: HLA-B*08:03; experiment: as above; conditions: source organism: Human immunodeficiency virus 1
[39] = target: HLA-B*15:01; experiment: as above; conditions: source organism: Human immunodeficiency virus 1
[40] = target: HLA-B*39:01; experiment: as above; conditions: source organism: Human immunodeficiency virus 1
[41] = source organism: Vibrio parahaemolyticus AQ3810
[42] = source organism: Human immunodeficiency virus 1

HQFTSNPEV
Kd [1]: 0.416 µM | Kd [2]: ≥ 5 µM | Kd [3]: ≥ 5 µM | Kd [4]: ≥ 5 µM | Kd [5]: ≥ 5 µM | Kd [6]: ≥ 5 µM | Kd [7]: ≥ 5 µM | Kd [8]: ≥ 5 µM | Kd [9]: ≥ 5 µM | Kd [10, 41]: ≥ 5 µM | Kd [11, 41]: ≥ 5 µM | Kd [12]: ≥ 5 µM | Kd [13]: ≥ 5 µM | Kd [14]: ≥ 20 µM | Kd [15]: 0.004 µM | Kd [16]: 0.008 µM | Kd [17]: ≥ 20 µM | Kd [18]: ≥ 20 µM | Kd [19]: ≥ 20 µM | Kd [20]: ≥ 20 µM | Kd [21]: ≥ 20 µM | Kd [22]: ≥ 20 µM | Kd [23]: ≥ 20 µM | Kd [24]: ≥ 20 µM | Kd [25]: ≥ 20 µM | Kd [26]: ≥ 20 µM | Kd [27]: ≥ 20 µM | Kd [28]: ≥ 20 µM | Kd [29]: ≥ 20 µM

EVKSLFNTV
Kd [30]: 0.199 µM | Kd [31]: ≥ 20 µM | Kd [32]: ≥ 20 µM | Kd [33]: ≥ 20 µM | Kd [34]: 0.0849 µM | Kd [35]: ≥ 20 µM | Kd [10, 42]: ≥ 20 µM | Kd [36]: 0.0004 µM | Kd [11, 42]: ≥ 20 µM | Kd [37]: ≥ 20 µM

EIKDTEEAL
Kd [30]: ≥ 20 µM | Kd [38]: ≥ 20 µM | Kd [33]: ≥ 20 µM | Kd [39]: ≥ 20 µM | Kd [36]: 0.183 µM | Kd [40]: ≥ 20 µM
